# Laboratory results reported in patent US20030166587A1 (SIGNAL PHARMACEUTICALS, published 2003).
# Non-standard residues stand in square brackets, D forms with d. No end group written: not given here. pS = N[C@@H](COP(=O)(O)O)C(=O)O
# Target: specific IκB E3 ubiquitin ligase activity of HeLa extract
# Experiment: cell-based or functional assay
row,Binder,IC50 of inhibition of pIκBα ubiquitination (in vitro ubiquitination assay in HeLa extract) [µM]
1,"CDDRHD[pS]GLD[pS]MKDEE [pp15, doubly phosphorylated IκBα peptide]",5
2,"CDDRHD[pS]GLD[pS]M [pp11, doubly phosphorylated IκBα peptide]",5
3,"CKKERLLDDRHDSGLD[pS]MKDEE [ppS36, singly phosphorylated IκBα peptide]",400
4,"CKKERLLDDRHD[pS]GLDSMKDEE [ppS32, singly phosphorylated IκBα peptide]",400
5,"CD[pS]GLD[pS]M [pp7, doubly phosphorylated IκBα peptide (minimal size peptide tested)]",10
